Where a chain is given by its changes, count along the chain named.
Key:
native human IL-13 [1] = biological target: T1, native human IL-13 (human, UniProt P35225 35-146, limits assumed); test: KinExA kinetic, direct method; koff calculated from kon and KD
T1 construct: also called hIL-13

[2] = biological target: T2, Human IL-13-rabbit Fc fusion protein (human IL-13 fused to rabbit Fc); test: ELISA on plates coated with IL-13RbFc, detection with rabbit anti Hu IgG Fc HRP (paragraph 267 to paragraph 269)
T2 construct: also called IL-13-RbFc; IL-13 Rb Fc

marmoset IL-13 = marmoset IL-13 (marmoset, UniProt A0A8I3WT33 35-145); test: KinExA, n-curve analysis
native human IL-13 [3] = biological target: T1, native human IL-13; test: KinExA kinetic, injection method; koff calculated from kon and KD
native macaque IL-13 = biological target: T3, native macaque IL-13 (macaque monkey); test: KinExA, equilibrium in solution
T3 construct: also called macaque monkey IL-13

[4] = biological target: T4, human IL-13 (source not stated for the assay) (human, UniProt P35225 35-146, limits assumed); test: cell-based or functional assay
[5] = biological target: T5, Recombinant Human IL-13 (R & D 213-IL-005) (human, UniProt P35225 35-146); test: SPR (Biacore 2000), mAb captured on goat anti-human surface, IL-13 (R&D) injected, 1:1 model
T5 construct: also called IL-13 antigen (R&D Systems)

[6] = biological target: T4, human IL-13 (source not stated for the …); test: cell-based or functional assay; remark: listed apart in the source
native human IL-13 [7] = biological target: T1, native human IL-13; test: KinExA kinetic, injection method
[8] = biological target: T4, human IL-13 (source not stated for the …); test: cell-based or functional assay; remark: listed apart in the source
native human IL-13 [9] = biological target: T1, native human IL-13; test: KinExA, equilibrium in solution
native human IL-13 [10] = biological target: T1, native human IL-13; test: KinExA; KD from the equilibrium experiments, printed in the kinetic table (direct method row); KinExA kinetic, direct method row; KD taken from the equilibrium experiments
[11] = biological target: T6, Human IL-13-Mouse IL-13 Helix C (human IL-13 with mouse Helix C, UniProt P35225 35-146, limits assumed); test: ELISA on secreted IL-13 chimeric proteins
T6 construct: Expressed and secreted chimeric protein; also called Mo HelixC
T6 chain: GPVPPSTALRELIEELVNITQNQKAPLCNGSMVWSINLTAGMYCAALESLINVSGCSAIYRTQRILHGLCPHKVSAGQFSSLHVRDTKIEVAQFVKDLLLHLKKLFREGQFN

[12] = biological target: T7, Human IL-13-Mouse IL-13 Helix B (human IL-13 with mouse Helix B, UniProt P35225 35-146, limits assumed); test: ELISA on secreted IL-13 chimeric proteins
T7 construct: Expressed and secreted chimeric protein; also called Mo HelixB
T7 chain: T6 chain with M42G, Y43F, A45V, E48D, I51T, Y60E, R61K, I65M, H67S, L69F

[13] = biological target: T5, Recombinant Human IL-13 (R & D …); test: SPR (Biacore 2000) high resolution, mAb captured on goat anti-human Fc pAb, IL-13 (R&D Systems) 12.6-0.394 nM, 23 C, global 1:1 fit
native human IL-13 [14] = biological target: T1, native human IL-13; test: KinExA kinetic, direct method
native human IL-13 [15] = biological target: T1, native human IL-13; test: KinExA; KD from the equilibrium experiments, printed in the kinetic table (injection method row)
mouse IL-13 = biological target: T8, mouse IL-13 (mouse, UniProt P20109 22-131, limits assumed); test: epitope mapping with mouse IL-13 chimeric molecules (ELISA)
T8 construct: also called murine IL-13
T8 sequence (looked up): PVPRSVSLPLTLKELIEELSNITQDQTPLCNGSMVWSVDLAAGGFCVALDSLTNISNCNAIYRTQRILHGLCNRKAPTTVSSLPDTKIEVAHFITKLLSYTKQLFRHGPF

T2 sequence (chain, as listed by the source limits assumed): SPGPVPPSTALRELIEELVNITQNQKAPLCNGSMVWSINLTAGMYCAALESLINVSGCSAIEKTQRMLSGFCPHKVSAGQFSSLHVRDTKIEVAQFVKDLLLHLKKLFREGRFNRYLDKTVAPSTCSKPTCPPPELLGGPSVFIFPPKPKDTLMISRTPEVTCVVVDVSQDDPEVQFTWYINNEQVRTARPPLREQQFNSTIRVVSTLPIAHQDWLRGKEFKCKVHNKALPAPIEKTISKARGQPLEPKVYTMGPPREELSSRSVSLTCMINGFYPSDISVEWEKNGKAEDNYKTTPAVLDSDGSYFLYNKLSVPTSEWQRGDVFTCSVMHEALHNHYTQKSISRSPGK
T3 sequence (Q864V6 19-132): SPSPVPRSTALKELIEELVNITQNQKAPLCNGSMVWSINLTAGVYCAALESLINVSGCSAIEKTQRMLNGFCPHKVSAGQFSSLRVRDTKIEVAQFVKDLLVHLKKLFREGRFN
marmoset IL-13, sequence (A0A8I3WT33 entry or part of it): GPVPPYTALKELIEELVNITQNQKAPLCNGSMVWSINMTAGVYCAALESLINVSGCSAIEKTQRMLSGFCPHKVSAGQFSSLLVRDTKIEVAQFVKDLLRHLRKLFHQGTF

koff (native human IL-13 [1]): 0.00027 s⁻¹ | binding result [2]: binds | Kd (marmoset IL-13): 0.403 nM | koff (native human IL-13 [3]): 0.00036 s⁻¹ | Kd (native macaque IL-13): 0.037 nM | EC50, HDLM-2 proliferation assay (3H-thymidine) [4]: 4.5 nM | EC50, L-1236 proliferation assay (3H-thymidine) [4]: 0.39 nM | IC50, IL-13-induced CD23 expression on whole blood B cells (FACS) [4]: 6.2 nM | Kd [5]: 0.052 nM | koff [5]: 0.00025 s⁻¹ | kon [5]: 4.9e+06 M⁻¹ s⁻¹ | IC50, IL-13 induced eotaxin release, Average [6]: 0.036 nM | IC50, IL-13 induced eotaxin release, n = 1 [6]: 0.031 nM | IC50, IL-13 induced eotaxin release, n = 2 [6]: 0.04 nM | IC50, IL-13 induced eotaxin release, n = 3 [6]: 0.035 nM | kon (native human IL-13 [7]): 1.5e+07 M⁻¹ s⁻¹ | IC50, eotaxin production by HDFa cells, 300 pM IL-13 [8]: 56 pM | IC50, eotaxin production by HDFa cells, 600 pM IL-13 [8]: 113 pM | Kd (native human IL-13 [9]): 0.024 nM | Kd (native human IL-13 [10]): 0.024 nM | binding result [11]: binds | binding result [12]: binds | Kd [13]: 0.034 nM | kon [13]: 7.3e+06 M⁻¹ s⁻¹ | kon (native human IL-13 [14]): 1.1e+07 M⁻¹ s⁻¹ | Kd (native human IL-13 [15]): 0.024 nM | binding result (mouse IL-13): no binding
B1: mAb 623 (antibody, V domains shown)
VH: EVQLVESGGGLVKPGGSLRLSCAASGFTFSNAWMSWVRQAPGKGLEWVGRIRSEIDGGTTNYAAPVKGRFTISRDDSKNTLYLQMNSLKTEDTAVYYCATDQVGAYYGDYYGMDVWGQGTTVTVSS
VL: SYELTQPPSVSVSPGQTARITCSGDALPEKYAYWYQQKSGQAPVLVIYEDSKRPSGIPERFSGSSSGTMATLTISGAQVEDEADYYCHSTDSSGNHGVFGGGTKLTVLG
notes: also called sc623

— patent US20100047253A1 (Amgen, published 2010)
